# T1: ZAP, zeta activating peptide, the PKCzeta uORF-encoded peptide
# T1 chain: MGPREARLQVHQLQTAGP
# T2: ZIP, zeta inhibitory peptide, the pseudo-substrate peptide of the PKCzeta regulatory domain
# T2 chain: SIYRRGARRWRKL
# B1: PKCepsilon, HA-tagged, immunoprecipitated from HEK293T lysate (protein)
# chain: MVVFNGLLKIKICEAVSLKPTAWSLRHAVGPRPQTFLLDPYIALNVDDSRIGQTATKQKTNSPAWHDEFVTDVCNGRKIELAVFHDAPIGYDDFVANCTIQFEELLQNGSRHFEDWIDLEPEGRVYVIIDLSGSSGEAPKDNEERVFRERMRPRKRQGAVRRRVHQVNGHKFMATYLRQPTYCSHCRDFIWGVIGKQGYQCQVCTCVVHKRCHELIITKCAGLKKQETPDQVGSQRFSVNMPHKFGIHNYKVPTFCDHCGSLLWGLLRQGLQCKVCKMNVHRRCETNVAPNCGVDARGIAKVLADLGVTPDKITNSGQRRKKLIAGAESPQPASGSSPSEEDRSKSAPTSPCDQEIKELENNIRKALSFDNRGEEHRAASSPDGQLMSPGENGEVRQGQAKRLGLDEFNFIKVLGKGSFGKVMLAELKGKDEVYAVKVLKKDVILQDDDVDCTMTEKRILALARKHPYLTQLYCCFQTKDRLFFVMEYVNGGDLMFQIQRSRKFDEPRSRFYAAEVTSALMFLHQHGVIYRDLKLDNILLDAEGHCKLADFGMCKEGILNGVTTTTFCGTPDYIAPEILQELEYGPSVDWWALGVLMYEMMAGQPPFEADNEDDLFESILHDDVLYPVWLSKEAVSILKAFMTKNPHKRLGCVASQNGEDAIKQHPFFKEIDWVLLEQKKIKPPFKPRIKTKRDVNNFDQDFTREEPVLTLVDEAIVKQINQEEFKGFSYFGEDLMP
# B2: PKCtheta, HA-tagged, immunoprecipitated from HEK293T lysate (protein)
# chain: MSPFLRIGLSNFDCGSCQSCQGEAVNPYCAVLVKEYVESENGQMYIQKKPTMYPPWDSTFDAHINKGRVMQIIVKGKNVDLISETTVELYSLAERCRKNNGKTEIWLELKPQGRMLMNARYFLEMSDTKDMNEFETEGFFALHQRRGAIKQAKVHHVKCHEFTATFFPQPTFCSVCHEFVWGLNKQGYQCRQCNAAIHKKCIDKVIAKCTGSAINSRETMFHKERFKIDMPHRFKVYNYKSPTFCEHCGTLLWGLARQGLKCDACGMNVHHRCQTKVANLCGINQKLMAEALAMIESTQQARCLRDTEQIFREGPVEIGLPCSIKNEARPPCLPTPGKREPQGISWESPLDEVDKMCHLPEPELNKERPSLQIKLKIEDFILHKMLGKGSFGKVFLAEFKKTNQFFAIKALKKDVVLMDDDVECTMVEKRVLSLAWEHPFLTHMFCTFQTKENLFFVMEYLNGGDLMYHIQSCHKFDLSRATFYAAEIILGLQFLHSKGIVYRDLKLDNILLDKDGHIKIADFGMCKENMLGDAKTNTFCGTPDYIAPEILLGQKYNHSVDWWSFGVLLYEMLIGQSPFHGQDEEELFHSIRMDNPFYPRWLEKEAKDLLVKLFVREPEKRLGVRGDIRQHPLFREINWEELERKEIDPPFRPKVKSPFDCSNFDKEFLNEKPRLSFADRALINSMDQNMFRNFSFMNPGMERLIS
# B3: PKCzeta, HA-tagged, immunoprecipitated from HEK293T lysate (protein)
# chain: MPSRTGPKMEGSGGRVRLKAHYGGDIFITSVDAATTFEELCEEVRDMCRLHQQHPLTLKWVDSEGDPCTVSSQMELEEAFRLARQCRDEGLIIHVFPSTPEQPGLPCPGEDKSIYRRGARRWRKLYRANGHLFQAKRFNRRAYCGQCSERIWGLARQGYRCINCKLLVHKRCHGLVPLTCRKHMDSVMPSQEPPVDDKNEDADLPSEETDGIAYISSSRKHDSIKDDSEDLKPVIDGMDGIKISQGLGLQDFDLIRVIGRGSYAKVLLVRLKKNDQIYAMKVVKKELVHDDEDIDWVQTEKHVFEQASSNPFLVGLHSCFQTTSRLFLVIEYVNGGDLMFHMQRQRKLPEEHARFYAAEICIALNFLHERGIIYRDLKLDNVLLDADGHIKLTDYGMCKEGLGPGDTTSTFCGTPNYIAPEILRGEEYGFSVDWWALGVLMFEMMAGRSPFDIITDNPDMNTEDYLFQVILEKPIRIPRFLSVKASHVLKGFLNKDPKERLGCRPQTGFSDIKSHAFFRSIDWDLLEKKQALPPFQPQITDDYGLDNFDTQFTSEPVQLTPDDEDAIKRIDQSEFEGFEYINPLLLSTEESV
# Key:
# [1] = biological target: T1, ZAP, zeta activating peptide, the …
# [2] = biological target: T2, ZIP, zeta inhibitory peptide, the …
Protein,phosphorylation of MBP by PKC isoforms (32P-γATP in vitro kinase assay) [1],PKCzeta phosphorylation of MBP (32P-γATP in vitro kinase assay) [1],"kinase activity (phosphorylation of MBP, 32P-γ-ATP in vitro kinase assay, dose series of peptide) [1]","kinase activity (phosphorylation of MBP, 32P-γ-ATP in vitro kinase assay, dose series of peptide) [2]"
B1,"enhanced the phosphorylation of PKC isoforms of the novel PKC sub-family of PKCzeta, PKCdelta and PKCepsilon",–,–,–
B2,"the peptide had no effect on the phosphorylation of MBP by the PKC isoforms PKCeta (PKCη), PKCtheta (PKCθ), PKCgamma (PKCγ), and PKCalpha (PKCα)",–,–,–
B3,"enhanced the phosphorylation of PKC isoforms of the novel PKC sub-family of PKCzeta, PKCdelta and PKCepsilon","did not inhibit PKCzeta phosphorylation of MBP, rather significantly increased the phosphorylation on MBP",the ZAP peptide activates the kinase activity of both PKCzeta and PKMzeta,the known PS ZIP peptide inhibits their activity
